Targets include HIV gp120 Bal (HIV-1); HIV gp120 REJO (HIV-1); HIV gp120 CAAN (HIV-1).
Another assay concerns the target T1, Cyno FcγRIIA (cynomolgus macaque, UniProt A0A140HDM9 28-216).
T1 construct: also called cynomolgus macaque FcγRIIA
T1 sequence: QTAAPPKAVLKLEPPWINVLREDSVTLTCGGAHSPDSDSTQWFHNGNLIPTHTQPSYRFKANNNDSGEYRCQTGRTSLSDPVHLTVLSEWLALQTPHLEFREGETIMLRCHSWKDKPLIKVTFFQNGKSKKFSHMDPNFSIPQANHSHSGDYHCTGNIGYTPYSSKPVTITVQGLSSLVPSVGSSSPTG
Briefly: SPR (Biacore 4000), antibody amine coupled to CM4 chip, receptor as analyte, steady-state fit. (In general: Surface plasmon resonance follows binding to a sensor surface in real time, without labels.)

For another assay, the target named is T2, Cyno FcγRIIB (cynomolgus macaque, UniProt A0A140HDN4 43-217).
T2 construct: also called cynomolgus macaque FcγRIIB
T2 sequence: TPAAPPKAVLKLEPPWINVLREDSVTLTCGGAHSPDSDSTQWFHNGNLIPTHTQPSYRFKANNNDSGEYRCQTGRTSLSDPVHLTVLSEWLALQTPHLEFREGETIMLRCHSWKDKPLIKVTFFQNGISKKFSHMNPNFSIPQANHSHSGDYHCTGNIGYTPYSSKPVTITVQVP
The description is as above.

Where a chain is given by its changes, count along the chain named.

Description for Cyno FcγRIIA: (§1) The in vitro binding dissociation constants (KD) of selected antibodies described herein for human and cynomolgus macaque (cyno) Fc binding receptors (FcγRs, FcRn) were determined using the Biacore 4000 surface plasmon resonace (SPR) biosensor, and either C1 or CM4 sensor chips (GE Healthcare).
(§2) To determine cynomolgus macaque FcγRIIA, FcγRIIB, FcγRIII and FcγRI binding affinities each test antibody was amine coupled to a CM4 sensor chip at two densities (about 100 RU and about 800 RU). Cyno FcγRIIA and FcγRIIB were tested in a two-fold concentration series up to 1 μM. FcγRIII was tested in a two-fold concentration up to 500 nM. Cyno FcγRT was tested for binding using a two-step titration (3 nM and 30 nM). The response data for FcγRIIA, FcγRIIB, FcγRIII at steady-state were fit to a simple binding isotherm. Responses for FcγRI were fit to a simple kinetic model.
Description for Cyno FcγRIIB: as §1, §2

B1: Antibody 1.52.64-1 (antibody, human IgG1, kappa)
heavy: QVQLLQSGAAVTKPGASVRVSCEASGYNIRDYFIHWWRQAPGQGLQWVGWINPKTGQPNNPRQFQGRVSLTRHASFDFDTFSFYMDLKALRSDDTAVYFCARQRSDYWDFDVWGSGTQVTVSSASTKGPSVFPLAPSSKSTSGGTAALGCLVKDYFPEPVTVSWNSGALTSGVHTFPAVLQSSGLYSLSSVVTVPSSSLGTQTYICNVNHKPSNTKVDKKVEPKSCDKTHTCPPCPAPELLAGPDVFLFPPKPKDTLMISRTPEVTCVVVDVSHEDPEVKFNWYVDGVEVHNAKTKPREEQYNSTYRVVSVLTVLHQDWLNGKEYKCKVSNKALPLPEEKTISKAKGQPREPQVYTLPPSREEMTKNQVSLTCLVKGFYPSDIAVEWESNGQPENNYKTTPPVLDSDGSFFLYSKLTVDKSRWQQGNVFSCSVLHEALHSHYTQKSLSLSPGK
light: DIQMTQSPSSLSASVGDTATITCQANGYLNWYQQRRGKAPKLLIYDGSKLERGVPSRFSGRRWGQEYNLTINNLQPEDIATYFCQVYEFVVPGTRLDLKRTVAAPSVFIFPPSDEQLKSGTASVVCLLNNFYPREAKVQWKVDNALQSGNSQESVTEQDSKDSTYSLSSTLTLSKADYEKHKVYACEVTHQGLSSPVTKSFNRGEC
Turning to B1, the EC50 with HIV gp120 Bal came out at 0.07 nM; with HIV gp120 REJO, 4.02 nM; in the assay with HIV gp120 CAAN, 3.79 nM. In addition, the Kd was 1180 nM in the assay with Cyno FcγRIIA and 280 nM in the assay with Cyno FcγRIIB.

B2: Antibody A (antibody, human IgG1, kappa)
heavy: not shown
light: B1 light with A19V
Consider B2, for which the figures for the EC50 with HIV gp120 Bal, in the assay with HIV gp120 REJO and with HIV gp120 CAAN were 0.05 nM, 2.21 nM and 1.84 nM, respectively. The values for the Kd with Cyno FcγRIIA and in the assay with Cyno FcγRIIB were 2000 nM and 895 nM, respectively.

As a reminder, the EC50 is the concentration at which the effect is half-maximal. Low readings indicate an effect from little substance, high ones a need for much substance. For orientation: Kd means the constant that tells how readily two partners part at equilibrium.

The values above are taken from patent publication US20220089698A1 (published 2022).
